Source: the DeepSol protein solubility set

experiment: soluble on expression in E. coli; label from the status in PepcDB or PDB records

Question: For “MRKIVLASVVTSLVGCSMGHRDPVEAKQALNQAINETNSRQIDQLPPSVEADLMPDMDTLTASEPKTLQRFRIQAEDVEAKAFFASLVQGTEYSAAIHPAVTGRITLNLTDVTLDEALGVVRDLYGFEVVKEGKVIQVYPAGLRTVTIPVDYLQFKRTGRSLTSITTGTITNTDTNNSNSSSSSSSSISSNSSSDGSSSNSNSNRSDARGGTEIETTNESDFWPLLEKAVAQLLGGSGGQTVIVNPQAGVLTLRAYPDEIRQVNEFLGISQQRMHRQVILEAKILEVTLSDGYQQGINWSKAFSSNGANYKIGSGSITQDSNGNPITSVLPGLDAIGNLLGGQSNVVISSGSFDAVISFMATQGDLNVLSSPRVTASNNQKAVIKVGTDEYYVTDLSSVVGTGDNAQASPDITLTPFFSGISLDVTPQIDDQGNVLLHVHPAVIEVEQQTKKILYRSEEIELPLARSSIRESDSVIRAKDGDVVVIGGLMKSNTVDQVSKVPFLGDVPALGHLFRNTTKLTQKTELVILLKPTVVGVNTWQKELERSRSLLQEWFPDSQ”, which “soluble on expression in E. coli” value is on record?
Answer: not soluble

Question: For “MGSDKIHHHHHHMSLSAQKCGRFFVSIQTEFEQERPTHKGGEIGIDMGVTRFATLSNGEFFEPLNAFKTYKGKLAKLQKQLKNKVKFSKNWQKLKEKIGKLHHKIANCRKDFLHKISTQISKNHAMIYVEDLQVANMSKSAKGTVEAHGKNVKQKSGLNRAILDQSWFEFRRQLDYKTQWLGGFLVAVPPRDTSRTCPCCGHIAKENRETQAHFECVECGYRENADVVGGINVLARGLAIVQA”, which “soluble on expression in E. coli” value is on record?
Answer: not soluble

Question: With “MGSDKIHHHHHHMELCTTICVDLAKQVFQLAGEDATGRVIYEDRIKSRQAFHDFLLRLPTTVAVLMECGPGAQAWARLLQAKGNPVRILPAQRVAEHRSGAKNDRNDCYAILRAGRDTSIASIPIKSTTALAIQALHRIRRGNIKRHTALGNQIRGLLLEHGVSMPQGDAAINKHVPRALEDASLPLPDLLRELLDELLMDWLSLGERITALSRRLEATAQEDKVAQRLITIRGVGPIIATAIVAKQTDPSRFASGRMYSAFFGIVPDQHSSGNKIRLGKMSKRGDGYIRSLMIQGAHSVLSQLRPDSDQPDDRRLLRWLSRLGRKEAAIRLANRNLRIIWALLQSDQVYQRKPNEKPEAAMSL” as the sequence, how does the “soluble on expression in E. coli” value read?
Answer: not soluble

Question: Which “soluble on expression in E. coli” value does the source give for “KDADVDITLIDRTNHHLFQPLLYQVATGILSSGEIAPQTRQVLAQQNNVHVLKAEVTDIDTESKTVVADLDDYSKTIEYDSLIVAAGAGQSYFGNDHFAEFAPGMKTIDDALELRARIIGAFERAEMCEDPKERERLLTFVIVGAGPTGVELAGQLAEMAHRTLSGEYTQFTPSNAKIILLDGAPQVLPPFGKR” here?
Answer: not soluble

Question: For “MGSDKIHHHHHHMRDMVPRLTKSYEASSQPIASIRSSVLSVVVGALEATGVSTDHLLAQHGLSRLTLDDPYNPVSLKNYVAFFEDAARMSSQPMLGIRLGNAIKAEDLGPVGVLYTMMQTLRSAIVRFSHFFPALQGSTKLGLSVRGDATWLEYQIEDQTIWPRRQDTEFTLALICALTRSRLGRGWAPEEIHFEHSAPTNGRDMAHFFGAVIRFDQPINRMLIRTEDLDLPFASANPAAIAIIEQHLNDLIGDGVVPAFEDAVLQAIMRCMKRGEVTLELVASRLGIGPRTLQRRLAATGRTFREIVQQQRHGTATVLLKDERIALGVVAGNLGYADTATMSRAFKTWTGQSPRAYSKKNRREAR”, which “soluble on expression in E. coli” value is on record?
Answer: not soluble

Question: Which “soluble on expression in E. coli” value does the source give for “GPGSMTQNIIRRIFGNRELPENLSGSEYERYMQENFPKWIDEFEKGGFLEATKLPAIKSERDFLSKLIEHKDEIMVVKYWKHGCIPCLSLAEMYKQVSEQCKKENRRIAWYSVNTKDVSARSLVDYQLVNGTPTVQTFSRMKQVGKEIRAISAEELMRELSLREAALNTES” here?
Answer: soluble

Question: For “MSLADLTFPSLSYRTGPYAAGGIPFADGYADYFTLLNERDGGIGGVKANVLECETGYNTEKGVECYESTKGQGALVYQPLSTGITYQLIPKATADGIAIHSMGYGRTSAKNGNVFSHVFNYPANYWDGASGAVNYLLEINGGDIKGKKIALVYHNSAYGKEPIRTLEELSKKHGFDLSTLPVDHPGQEQKSQWLQIRRDKPDYVLMWGWGVMNQVAVQEAANIRFPMENFIGIWWSGSENDVLPAGDAANGYKALTFHNVGTAFPLFDDLQKYVIDAGKAAGAGDQVGTVLYNRGLYAAMLAAEAAKKAQEISGKADITAADMRDGMEALEMTEAKMAELGLPNFGPTFSVSCGNHGGDALVGVTQWDATSKTWSLISDFKPTDGDVIGALIEEDSSAYASENNISPRCNEGHHHHHH”, which “soluble on expression in E. coli” value is on record?
Answer: soluble

Question: Which “soluble on expression in E. coli” value does the source give for “SNAMQKSVLEQLKQVTMVVADTGDFELIKKYKPVDATTNPSLILKAVKEQKYSNLVAETISKVKANNPDLNSDDLVKEIAIEILVSFGIKILDVIEGKVSSEVDARVSFNSATTIDYAKRIIARYESNGIPKDRVLIKIAATWEGIKAAKLLQKEGINCNLTLIFDKAQAKACAEAGVYLVSPFVGRITDWQMQQNNLKTFPAIADDDGVNSVKAIYKLYKSHGFKTIVMGASFRNVEQVIALAGCDALTISPVLLEELKNRDEHLEVKLTKNDDVVTQSPQISEADFRWLMNENAMATHKLAEGIRLFTKDTIELENIIKQNL” here?
Answer: soluble

Question: For “MPLLSVIIPFGLSKERPYIEERVLQKAKFFQSDENIEFIFVEGYSSKDHELKNFIQANHHIYLKDMDQKAFSQGRCRNLGASYAHSNVLLFLDVDCYISLDNFEKILKLIQIKNISQNINALIVLPVVYLNKEANEKLKQYDDKFWDILIQEDLFTAKNTWVKFFAPSSTSSIVINKHQFLRLGGNDENFIGHGYEDFDLFARILKACVSFEKMPTNLSYDARNWNFFNFKGFRSWFSLLGYEACFYGIYIYHFYHIEPNQNAYMQNKDKNHQLFYKHLKNIKKHDLKPLQVFKAKGEKVLMLFKDQNYDFKDISVYVGEIIYKNISDFFIAKELKYELLLDFLQQEKITKIFLDASIKLQFNGIDYCDIFYFQKGILPHSWFFAKKLDLGYKQDLNLSEQKLYQVKEYFLTLKEDEKKVILDFLSQNNDDKYDLYKMLYYLINELYSFEHDGIFYQIIIDKEKMLIAQKHDKSFYPLRSFVYKPYLHELKSIRPFSFLMKILGLEYLGAMISHTKFYRLARKLFFNPKGFFEDFNYKIMKGKI”, which “soluble on expression in E. coli” value is on record?
Answer: not soluble

Question: Which “soluble on expression in E. coli” value does the source give for “MAGHSHWAQIKHKKAKVDAQRGKLFSKLIREIIVATRLGGPNPEFNPRLRTAIEQAKKANMPWENIERAIKKGAGELEGEQFEEVIYEGYAPGGVAVMVLATTDNRNRTTSEVRHVFTKHGGNLGASGCVSYLFERKGYIEVPAKEVSEEELLEKAIEVGAEDVQPGEEVHIIYTVPEELYEVKENLEKLGVPIEKAQITWKPISTVQINDEETAQKVIKLLNALEELDDVQQVIANFEIPEEILQKVG” here?
Answer: soluble

Question: Which “soluble on expression in E. coli” value does the source give for “TVEKSVVFKAEGEHFTDQKGNTIVGSGSGGTTKYFRIPAMCTTSKGTIVVFADARHNTASDQSFIDTAAARSTDGGKTWNKKIAIYNDRVNSKLSRVMDPTCIVANIQGRETILVMVGKWNNNDKTWGAYRDKAPDTDWDLVLYKSTDDGVTFSKVETNIHDIVTKNGTISAMLGGVGSGLQLNDGKLVFPVQMVRTKNITTVLNTSFIYSTDGITWSLPSGYCEGFGSENNIIEFNASLVNNIRNSGLRRSFETKDFGKTWTEFPPMDKKVDNRNHGVQGSTITIPSGNKLVAAHSSAQNKNNDYTRSDISLYAHNLYSGEVKLIDDFYPKVGNASGAGYSCLSYRKNVDKETLYVVYEANGSIEFQDLSRHLPVIKSYN” here?
Answer: soluble

Question: With “MSLTVSFVHLRLHTEFSLVDGLVRVKPLAKAVAGLGMPAVAVTDQSNMCSLVKFYKTAMGAGIKPICGADIWLASREEDGPLSRLSLLAMNAKGYRNLTELISRGWSEGQRNGEIIIERDWVKEAAEGLIALSAAKEGEIGHALLDGEEAKAEALLREWMEVFPERFYVEVQRTSRVNDEEHLHAAVALASRCNAPLVATNDVRFIKQEDFEAHETRVCIGEGRTLDDPRRPRTYSDQQYLKSPAEMAELFSDLPEALENTVEIAKRCNIEVQLGKYFLPDFPTPNGMGIDDYLRHASFEGLEERLEVLLPKDTPDYEAKRQVYVDRLNFELDIIIQMGFPGYFLIVMDFIKWAKNNGVPVGPGRGSGAGSLVAYVLKITDLDPLAYDLLFERFLNPERISMPDFDVDFCMEGRDRVIDYVADAYGRNAVSQIITFGTMAAKAVVRDVARVQGKSYGLADRLSKMIPFEVGMTLDKAYEQEEMLRDFLKSDEEAAEIWEMALKLEGITRGTGKHAGGVVIAPTKLTDFSPIACDEEGGGLVTQFDKDDVEAAGLVKFDFLGLRTLTIIKWAMEIINREQAKKGLEPVNIDFIPLDDKPTYSLLQKAETTAVFQLESRGMKELIKKLKPDCLEDLIALVALFRPGPLQSGMVDDFINRKHGRAELSYPHPDYQYAGLEPVLKPTYGIILYQEQVMQIAQVMAGYTLGGADMLRRAMGKKKPEEMAKQRGGFIEGCKNNGEGHHHHHH” as the sequence, how does the “soluble on expression in E. coli” value read?
Answer: not soluble

Question: Which “soluble on expression in E. coli” value does the source give for “QRKGVLIILDGLGDRPIKELGGKTPLEYANTPTMDYLAKIGILGQQDPIKPGQPAGSDTAHLSIFGYDPYKSYRGRGYFEALGVGLELDEDDLAFRVNFATLENGVITDRRAGRISTEEAHELAKAIQENVDIPVDFIFKGATGHRAVLVLKGMAEGYKVGENDPHEAGKPPHPFTWEDEASKKVAEILEEFVKKAHEVLDKHPINEKRRKEGKPVANYLLIRGAGTYPNIPMKFTEQWKVKAAAVVAVALVKGVAKAIGFDVYTPKGATGEYNTDEMAKARKAVELLKDYDFVFIHFKPTDAAGHDNNPKLKAELIERADRMIKYIVDHVDLEDVVIAITGDHSTPCEVMNHSGDPVPLLIAGGGVRADYTEKFGEREAMRGGLGRIRGHDIVPIMMDLMN” here?
Answer: not soluble

Question: With “MKFSRPVLSVNHLILGKKCDVCRKKCSGDVLKANDKYFHINCFQCKKCGRNLGETGFYTTPENAYLCPDDFRAVSKEITVKTTTQQAHASSSSAATPKSPEKSNGTTDVSSSGAANATLQQISPLGSPTTCAACDQALHSGQVLLALGLSWHVYCFKCSECSAVLHGEYMSHHGKPLCLRDYNEKFGVKCYECEKFIAGKVLQAGGYKFHPTCARCSRCGSHFGDGEEMYMQGDEIWHPSCEHARTTENIAPTGRAATLSRNEPKYQSTFGQHQAYMYLLPEVEQTYLRHPVMNAKEPNAPQYHVPQGPIKIRKSRMSMLKTGMQRLTEDLEKNIPRPKSPHMDNEEPIELAHYPAAHVPDPDTLPAIEREDFPAPQFPYAVEELKRRLSTSSVENEISDDEYSESDKVDEDKLRKTVETLEKYNDSSIAHVIRQNIEDSHKKQRLPLHWDPRNASRTPSGKKMPHLKFRYDVPINASPSRHLNRPRPWVVWQGGERDQGNNTLPCFHIPEDSRANTLRAATLPTEFGQNLSLENLDTTISSHYSEHSTTESGTAGGPRSAGGAVLRSSLPDMSKPAKQYDLLFLQTTNSDLPEDVDRQHLERHLPRDQFEEIFKMSLIEFYKLPEWKRINLKRKHKLF” as the sequence, how does the “soluble on expression in E. coli” value read?
Answer: not soluble

Question: Which “soluble on expression in E. coli” value does the source give for “MAHHHHHHMRGKRRQHRELYQAVLREQAAKAQEDAAQRRARLSWKEKLQLSFQEARESVTQLTSAKAGVMALLQHCTASHTAEVALEQGIDVKNVQMVFEKAAASNSVGVEEIVVGYIDAPGASHEEVMAFAEKLHKVCPVAKSMHIEWRQGSADSRRHEDGAVRRADGLHREMEQAASGVEWAESRTGSNLGGRSSAADAASTTSVESMPAGMPGSRRVQSSMSSRATRGGSLRDDEDKLHFPGVEKRDTAWDSTRHGSSRAKEPSTETSTASHRPPPPESASAATTQPGACSSDPASASPFPKP” here?
Answer: soluble

Question: With “MYLIEPIRNGKRITDGAVALAMQVYVQENLFLDDDILFPYYCDPKVEIGKFQNAVVETNQEYLKEHHIPVVRRDTGGGAVYVDSGAVNICYLINDNGIFGDFKRTYQPAIEALHHLGATEVEMSGRNDLVIDGKKVSGAAMTIANGRVYGGYSLLLDVDFEAMEKALKPNRKKIESKGIRSVRSRVGNIREHLAPQYQGITIEEFKDLMVCQLLQIETISQAKRYDLTEKDWQQIDALTERKYHNWEWNYGNAPQYRYHRDGRFTGGTVDIHLDIKKGYIAACRIYGDFFGKADIAELEGHLIGTRMEKEDVLATLNAIDLAPYLGAITAEELGDLIFS” as the sequence, how does the “soluble on expression in E. coli” value read?
Answer: soluble
